Data from the domain aggregation screens of Martell et al. (2025).

Assay: soluble fraction after stress (log2 fold change); higher = more stays soluble; pooled small domains, quantitative proteomics
Details: stress: 75 degC
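Note: 20 min heating vs room temperature control held 20 min.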

Row | Sequence | soluble fraction (log2)
1 | HMSDPVDDLLLRISQQAGVARGQLVAELNMLVQDRFGGNLRHEAAAVLMAKRYGIEFRDLLPALREHLVKN | -0.804
2 | HMSDPVKQVAMRILDLREISDYTVDKMAEVLNVPVEEYRKYESGEVDMPISFLVKIGEVFHVDMTELLTG | -1.55
3 | HMSDQTYVKDPETGEIFRVHKRVWETGEFWRDPVWGNILGGVERGSELERLLREEGWRPLQQSLEGFPEQ | -0.284
4 | HMSDRESYGRYRNVSLTLSEYESLKNEYPLYADKYIERLSEYMETAGKHYNNHYATILSWLSKDIK | -0.201
5 | HMSDSGLPLPRFVSLGDDRVNARAGPGFRFPINWVYLRKNFPVEVIDEFGHWRRIKDIDGIEGWIHLSML | -0.793
6 | HMSDTSELESIIAQIIEDNPKSIEDIGAGNQKAYGFLTGQVMKATKGQANPQVANKIIRELVARKLE | ≥ 1.04
7 | HMSDTVDITKLGIAGKTKEAAEALLKENGFSVESKEENSDTIEKGKVISYSPTKPKNGDRITLIVSSGKK | 0.294
8 | HMSEDTYNTLTKGTRVYNGVDYGAKYGYNPLYYFLNYNDLRIAYGADPAKLVEHYALFGIKENRVANRQIT | -1.33
9 | HMSEEELETSGLVKRSAKGNLYDIFRHRVMVPIIDVRGAIIAFGGRVLDDSKPKYINSPETMVY | -0.0708
10 | HMSEEQLKAFLEKVQGDTSLQEKLKAAADANAVVEIAKEAGFSISADDLKNAQSELSEEELE | -0.00468
11 | HMSEEVDVPDLVGMQLEEAEKSLEPLGLKLKIAKEIPNSEFEKGKIVDQKTKAGEKVKTGYTIEVTVSSG | -0.126
12 | HMSEFAYPISLNGKTKFNLALSLALTKEEIEKEVLANADVQKFLNGQTPKKLIVVPGKIVNVV | -0.386
13 | HMSEGEMSQWIIAQAKQQGGGFQPDAARLLGSYVGNNTLRARQEIDKLLTYVGPSRVVTPEDVVLLTA | -0.23
14 | HMSEHKFIVPEEFNLKRLDQTVAAQFEKISRTKISKIIKSSLLKVNDKVVTDQSIKIKQDDVITFTEIKDQ | -0.421
15 | HMSEKRLHLVVDESDVNTRIDKYIADELDGYSRSFIQKLIKDNNVLVNGRAVKPNYNIGISDNIDIVLPKL | 0.0186
16 | HMSELIDSLTEAVRSAPDAVPLRLHLAELLLADGQRDRAFAQLGQVLAKDPQNARALEMLGVGS | -0.129
17 | HMSELSEVIEKTFEELPEELKLIVKLREIDDLSYDEISNKIGIPIGTVRSRLHRAREILINIIKN | -2.5
18 | HMSELSGSQLKAIREEKHIPLEQVASATRIRLSLLEALEMDEYAELGSRTQARGFLKLYADFLGVPFEA | -1.53
19 | HMSEMDNMEWVREQYFQNMIYEIGEWVRDKKTGIVGEVVKRGTNYVTVVQEDFSLHKIWLEDLETTEK | -0.841

Row | Sequence | soluble fraction (log2)
20 | HMSEMLPFDEARRQFERDYLVQLLKLTSGNVSQAARLARRNRTDFYALLGRHQLEPASFKPE | -0.971
21 | HMSEMVIPEDFLAALETNPQAKAFYATLNRQNQYAVYHRLQTAKRPETRAKRIADFVAQLAAGKRF | -1.03
22 | HMSEPHPPFQVVAQFPYKSEYEDDLNFEKDQIITVTSIEDDEWYYGDFKNKGGELVEGIFPKSFVTVK | -0.31
23 | HMSEPQYKVLFSNLDDRDGGAIVTALGAMNVPYKYNDTGTALLVPADRVYDARLQLASQGLPRG | 0.262
24 | HMSEPTVVAINETLTSERLDRYLTTQLPHISRGGIQRLLRKGNILVDGKPAKPTQHPVAGQTVEITWPIPK | -0.607
25 | HMSEQMQVGELVFQLHRKAIKNLHINVLPPDGFVRVSAPQAMTETAIRTAVISRLPWIRRQQQAFAAQ | -3.48
26 | HMSERVVEIDPSQLRPGLFIRLPSGWMNHPFLFNQFRINSAEQVEIIQKLGLKTVQYLPERSSTQALPRA | -1.95
27 | HMSESEDFQNRWRPWRSLLDDETPVVREALVDQLKLFPEEGRLFLQQMSEEDDPISARHAFELIKSLGW | -0.363
28 | HMSETAVTYNEDFEADGSLRPNEQAVLDAFTGVLKLTVSELEKKTGLRNVVPVVASLMAKGAVEVSEELK | -0.0304
29 | HMSETEWGEIYRKVMAAGLIPARSVRERLLALPSIEPLLQAAEAAGSKGMLDETLLDSLLSKT | 0.0662
30 | HMSETLESYTTRLKQLEEIADSFQGVDKTFAIQAGREIRVMVVPEQISDDDMILLARDISNQIEENLDY | -0.234
31 | HMSEVIYVAEDNVGQRIDVFLVNKLVDASRANIQKNIVDGVILVNNKNVKANYKLRLGDVVEIRTQ | -1.38
32 | HMSEVPAAVLVTGGSINLREAPSTDATIIDVAQVGEKMTVLAEKNSWYQVSRGGRNVWVASWVVDPLT | -0.066
33 | HMSEVTYQETLRLLRRAIDVLPQQSRQIILLGLSGKNNNEVAEMLGISVNTVKTLKKGAYKSLRNSL | -1.87
34 | HMSEYITEGWLREKFGLGWGTEVHLPLDSRLTPAAHQLLEERKIVIKYIDAEGRVFNPDKSGEEAPVQ | -0.41
35 | HMSEYVIVTGEKVNLRVGPGMDYEIAGQVVKGDKLELLASEGDWSKVKTGSGSIYYISSSLVQKA | -0.157
36 | HMSFDGFSDRLKSVLNSGKYTQKEAAEKINISEYSFTKYLNGRIPQTEILYKIARLYNKSMEWLLTGKDPI | -2.74
37 | HMSFGWELYKGKEGIADTDLHPSGWIRIADKRVFAVSEGEFIEKGLEIIVLSVDGNRIVVRELK | -1.93
38 | HMSFGWETLEGKEGVTDTDLHPSGWVKVGDEKIFVVSQGEFLGKGTDIVVVSVDGNRVVVKELI | -0.998
